Results on one molecule are retold here after patent publication EP4778535A1 (Akeso Biopharma Co., Ltd., dated 2026).

For the assay, the target named is T1, human TIGIT-hFc (human, UniProt Q495A1 22-141).
T1 sequence (looked up): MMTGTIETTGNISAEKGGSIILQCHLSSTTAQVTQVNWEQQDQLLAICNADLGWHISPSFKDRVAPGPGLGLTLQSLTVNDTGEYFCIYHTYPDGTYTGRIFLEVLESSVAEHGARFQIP
The assay can be described thus: indirect ELISA screen of hybridomas with human TIGIT-hFc as antigen. On the technique in general: An ELISA detects its analyte on a solid surface through an enzyme-linked reagent.

B1: 26B12 (antibody, V domains shown)
VH: EVQLQESGPGLVKPSQSLSLTCTVTGHSFTSDYAWNWIRQFPGNRLEWMGYISYSDSTNYNPSLKSRISITRDTSKNQFFLQMNSVTTEDTATYYCARLDYGNYGGAMDYWGQGTSVTVSS
VL: DIVLTQSHEFMSTSLRDRVSITCKSSQHVSTAVAWYQQKPGQSPKLLIYSASYRYTGVPDRFTGSGSGTDFTFTISSVKAEDLAVYYCQQHYITPWTFGGGTKLEIK
notes: Murine monoclonal antibody from a hybridoma; also called anti-TIGIT antibody 26B12; monoclonal antibody secreted by hybridoma cell line LT019
For the molecule B1, the binding result is on record as “binds”.
